This note sets out measurements from patent publication US20100239590A1.

For the assay, the target named is human IL-17RC on HS68 foreskin fibroblast cells (human) (UniProt Q8NAC3). As to the kind of experiment: cell-based or functional assay.
UniProt Q8NAC3, sequence (Q8NAC3 21-791): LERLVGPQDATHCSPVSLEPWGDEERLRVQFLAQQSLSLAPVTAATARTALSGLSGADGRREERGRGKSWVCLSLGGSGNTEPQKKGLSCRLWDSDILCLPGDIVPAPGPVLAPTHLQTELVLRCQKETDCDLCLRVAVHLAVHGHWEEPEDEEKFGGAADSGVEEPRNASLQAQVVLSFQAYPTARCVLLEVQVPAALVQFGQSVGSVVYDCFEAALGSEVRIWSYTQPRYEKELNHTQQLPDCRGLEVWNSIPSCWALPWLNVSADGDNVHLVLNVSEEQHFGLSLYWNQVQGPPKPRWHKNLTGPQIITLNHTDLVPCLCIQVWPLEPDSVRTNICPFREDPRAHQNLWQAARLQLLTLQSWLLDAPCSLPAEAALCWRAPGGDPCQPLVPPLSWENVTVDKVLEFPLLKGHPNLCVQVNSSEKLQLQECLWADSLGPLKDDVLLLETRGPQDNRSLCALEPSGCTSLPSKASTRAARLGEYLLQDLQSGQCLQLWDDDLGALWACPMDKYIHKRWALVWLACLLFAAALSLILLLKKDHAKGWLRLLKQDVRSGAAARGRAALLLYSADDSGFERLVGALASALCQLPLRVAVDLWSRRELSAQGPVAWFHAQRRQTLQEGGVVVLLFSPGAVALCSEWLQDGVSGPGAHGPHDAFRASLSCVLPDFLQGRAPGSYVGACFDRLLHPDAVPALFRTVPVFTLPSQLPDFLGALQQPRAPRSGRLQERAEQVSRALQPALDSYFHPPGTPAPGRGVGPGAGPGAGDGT

In turn, “human IL-17A (from UniProt Q16552 24-155) (ligand)” registered an IL-6 induction in HS68 cells, EC50 of 5 to 10 ng/mL.
